Biological target: HBcS-NadA-CFHbp (Hepatitis B Virus | Neisseria meningitidis strain MC58) (UniProt Q9JXV4)
Experiment: cryo-EM structure; single particle cryoelectron microscopy of purified HBcS-NadA-CFHbp VLPs; 3.4 Å map; HBc T = 4 crystal structure fitted and refined; method details in Supplementary Materials

Substance: HBcS-NadA-CFHbp (from UniProt Q9JXV4 157-274)
- stoichiometry N: 240 copies

Reference: article PMC7113836
